Publication PMC10357585

Substrate: Nc1nc2nc[nH]c2c(=O)[nH]1
Experiment: Initial rate studies of TcHGXPRT, GMP biosynthesis
Format: biochemical, Trypanosoma cruzi
Conditions: other: variable substrate PRPP (1–78 μM) at fixed Gua levels; pH 8.3; 37.0 °C

B1: TcHGXPRT (Trypanosoma cruzi strain CL Brener) (protein)
chain: MISSQQAMVHVVSRNAEGVIVVDGKAYPMAEELVATESVIQRSIKAVAKQIADFYRPLSHRDTHGGGGVAPISDENPLIIISVLKGSYIFTADMVRYLGDYGLPHVVDFLRVASYRGTSSTNKMKLLAETQFKALRGKHVLILEDIVDSGKTLRYILDKVQREHQPATLKVCVLADKPGGRRVTMQPDFVCLTVPNKYVIGYGFEVNDRFRCFRHIFTLRPGEARRYPAHL
Work on B1 yielded a Km of 28 ± 3 µM and a kcat of 0.44 ± 0.02 s⁻¹.
